From patent US12304939B2, “EGFR and C-met fibronectin type III domain binding molecules” (Janssen Biotech, Inc., priority 2012, dated 2025)
Residue numbers refer to the chain shown, from its start. Several values for one entry are separate records, joined by “and”; a condition that tells them apart may be missing. Equal values may be shown once. Entries after “also recorded” stand apart in the source; their conditions may differ.

Key:
[1] = test system: H292-HGF human lung cancer xenograft; experiment: Efficacy of bispecific molecule and other inhibitors of EGFR and c-Met, subcutaneous H292-HGF human lung cancer xenograft; format: in vivo, SCID/Beige mice; details: for antitumor activity (in words): mouse, in vivo; for Tumor volume: mean ± SEM
Protocol: The H292-HGF cells were maintained in vitro in RPMI1640 medium supplemented with fetal bovine serum (10% v/v), and L-glutamine (2 mM) at 37° C. in an atmosphere of 5% CO2 in air. The cells were routinely subcultured twice weekly by trypsin-EDTA treatment. The cells growing in an exponential growth phase were harvested and counted for tumor inoculation.
Each mouse was inoculated subcutaneously at the right flank region with H292-HGF tumor cells (2×10^6) in 0.1 ml of PBS with cultrex (1:1) for tumor development. The treatments were started when the mean tumor size reached 139 mm3. […] The date of tumor cell inoculation was denoted as day 0.
Before commencement of treatment, all animals were weighed, and the tumor volumes were measured. Since the tumor volume can affect the effectiveness of any given treatment, mice were assigned into groups using randomized block design based upon their tumor volumes. […] The randomized block design was used to assign experimental animals to groups. First, the experimental animals were divided into homogeneous blocks according to their initial tumor volume. Secondly, within each block, randomization of experimental animals to treatments was conducted.
The endpoint was whether tumor growth can be delayed or tumor bearing mice can be cured. Tumor size was measured twice weekly in two dimensions using a caliper, and the volume was expressed in mm3 using the formula: V=0.5 a×b2 where a and b are the long and short diameters of the tumor, respectively. The tumor size was then used for calculations of both T-C and T/C values. T-C was calculated with T as the time (in days) required for the mean tumor size of the treatment group to reach 1000 mm3, and C was the time (in days) for the mean tumor size of the control group to reach the same size. The T/C value (in percent) was an indication of antitumor efficacy; T and C were the mean tumor volume of the treated and control groups, respectively, on a given day. Complete tumor regression (CR) is defined as tumors that are reduced to below the limit of palpation (62.5 mm3). Partial tumor regression (PR) is defined as tumors that are reduced from initial tumor volume. A minimum duration of CR or PR in 3 or more successive tumor measurements is required for a CP or PR to be considered durable.
Statistical analyses of difference in tumor volume among the groups were evaluated using a one-way ANOVA followed by individual comparisons using Games-Howell (equal variance not assumed). All data were analyzed using SPSS 18.0. p<0.05 was considered to be statistically significant.

[2] = Body weight loss and tolerability in the H292-HGF xenograft study; details: mouse, in vivo
Protocol: At the time of routine monitoring, the animals were checked for any effects of tumor growth and treatments on normal behavior, such as mobility, visual estimation of food and water consumption, body weight gain/loss (body weights were measured twice weekly), eye/hair matting and any other abnormal effect.
Animals for which the body weight loss exceeded 20%, or for which the mean tumor size of the group exceeds 2000 mm^3 were euthanized. The study was terminated after two weeks of observation after the final dose.

[3] = test system: NCI-H292 cells expressing human HGF; experiment: Tumor efficacy study with four bispecific EGFR/c-Met molecules, H292-HGF xenografts; format: in vivo, SCID Beige mice; details: 25 mg/kg three times per week
Protocol: One week after implantation, mice were stratified into groups with equivalent tumor volumes (mean tumor volume=77.9+/−1.7 mm3). Mice were dosed three times per week with the bispecific molecules and tumor volumes were recorded twice weekly.

[4] = target: T1, c-Met-Fc fusion protein (Homo sapiens, UniProt P08581); experiment: c-Met-Fc affinity by surface plasmon resonance (Proteon); format: binding; details: serine mutants of A3 in the context of ECB15
T1 construct: recombinant EGFR and/or c-Met extracellular domain
T1 sequence (P08581 25-932 limits assumed): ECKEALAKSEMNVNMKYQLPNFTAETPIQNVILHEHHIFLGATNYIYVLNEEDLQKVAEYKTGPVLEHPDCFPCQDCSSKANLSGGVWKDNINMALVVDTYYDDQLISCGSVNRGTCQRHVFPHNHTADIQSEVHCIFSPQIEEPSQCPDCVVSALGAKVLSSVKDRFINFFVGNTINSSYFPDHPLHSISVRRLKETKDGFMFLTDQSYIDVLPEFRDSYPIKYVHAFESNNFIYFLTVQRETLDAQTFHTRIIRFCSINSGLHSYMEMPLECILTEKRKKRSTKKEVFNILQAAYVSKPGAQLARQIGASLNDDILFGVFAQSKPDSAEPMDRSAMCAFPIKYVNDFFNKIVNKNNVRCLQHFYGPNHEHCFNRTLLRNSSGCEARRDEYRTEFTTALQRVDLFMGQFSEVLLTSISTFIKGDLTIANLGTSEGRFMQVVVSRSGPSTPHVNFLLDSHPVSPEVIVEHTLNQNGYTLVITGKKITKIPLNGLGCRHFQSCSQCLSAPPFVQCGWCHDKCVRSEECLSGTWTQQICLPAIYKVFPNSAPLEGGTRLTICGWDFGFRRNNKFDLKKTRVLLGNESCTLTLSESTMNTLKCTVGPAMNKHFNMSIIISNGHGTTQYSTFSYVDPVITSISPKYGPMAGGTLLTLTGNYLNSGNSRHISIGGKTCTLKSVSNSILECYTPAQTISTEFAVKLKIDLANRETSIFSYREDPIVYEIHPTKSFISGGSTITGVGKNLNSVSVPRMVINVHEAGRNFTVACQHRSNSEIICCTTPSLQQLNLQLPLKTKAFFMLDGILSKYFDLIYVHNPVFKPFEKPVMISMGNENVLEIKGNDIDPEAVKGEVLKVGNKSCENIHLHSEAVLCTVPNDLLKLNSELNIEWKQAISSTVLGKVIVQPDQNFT

[5] = test system: H292 cells; experiment: Inhibition of proliferation of HGF-induced H292 cells; format: cell-based, human; details: bispecific molecules
Excerpt: Inhibition of tumor cell proliferation can be measured using standard methods and methods described herein.
The proliferation assay was completed using different combinations EGFR and c-Met binding FN3 domains either as a mixture or linked in a bispecific format. […] This confirmed that the avidity effect observed at the level of the receptors (FIG. 4 and FIG. 5) translates into an improvement in inhibiting cell signaling (Table 12) and cell proliferation (Table 13).
(§1) Inhibition of human tumor cell growth was assessed in standard attachment culture as described in Examples 3 or 6, or in low attachment conditions.

[6] = test system: cell lines shown in Table 20; experiment: Inhibition of human tumor cell growth by bispecific molecule in cell line panel (standard or low attachment); format: cell-based
Protocol: as §1

[7] = Differential scanning calorimetry in PBS (thermal stability); format: physicochemical; details: DSC in PBS, EGFR-binding FN3 domains
Excerpt: A subset of the EGFR binding FN3 domains was engineered to increase the conformational stability of each molecule. […] The new mutants, P54AR5-83v2, P54CR431-v2, and P54AR4-37v2 were expressed and purified as described above. Differential scanning calorimetry in PBS was used to assess the stability of each mutant in order to compare it to that of the corresponding parent molecule.
Differential scanning calorimetry in PBS was used to assess the stability of each FN3 domain.

[8] = listed as bispecific EGFR/c-Met molecule

C[C@@H](Oc1cc(-c2cnn(C3CCNCC3)c2)cnc1N)c1c(Cl)ccc(F)c1Cl [Crizotinib, crizotinib, reference compound]
antitumor activity (in words) [1]: no antitumor activity
toxicity, body weight loss, tolerability (in words) [2]: More severe body weight loss

C#Cc1cccc(Nc2ncnc3cc(OCCOC)c(OCCOC)cc23)c1 [Erlotinib, erlotinib, reference compound]
toxicity, body weight loss, tolerability (in words) [2]: More severe body weight loss

B1: ECB18: bispecific SEQ ID NO: 118: P54AR4-83v2, (AP)5, P114AR5P74-A5, linked to albumin binding domain (protein)
chain: MLPAPKNLVVSEVTEDSARLSWDDPWAFYESFLIQYQESEKVGEAIVLTVPGSERSYDLTGLKPGTEYTVSIYGVHNVYKDTNMRGLPLSAIFTTAPAPAPAPAPLPAPKNLVVSRVTEDSARLSWTAPDAAFDSFWIRYDEVVVGGEAIVLTVPGSERSYDLTGLKPGTEYYVNILGVKGGSISVPLSAIFTTAPAPAPAPAPLAEAKVLANRELDKYGVSDYYKNLINNAKTVEGVKALLDEILAALP
modifications: Bispecific EGFR/c-Met binding molecule
tumor growth (tumor growth inhibition, TGI) [3]: reduced tumor growth
tumor growth (tumor growth inhibition, TGI) ([3]; listed as P54AR4-83v2-P114AR5P74-A5): delay in tumor growth

B2: ECB38: bispecific SEQ ID NO: 120: P54AR4-83v2, (AP)5, P114AR7P94-A3, linked to albumin binding domain (protein)
chain: B1 chain with D141F, V143F, V144L, V145G, G146S, Y173V, L177M, S183K, V186P
modifications: Bispecific EGFR/c-Met binding molecule
tumor growth (tumor growth inhibition, TGI) [3]: reduced tumor growth
tumor growth (tumor growth inhibition, TGI) ([3]; listed as P54AR4-83v2-P114AR7P94-A3): showed the most efficacy
Tumor Size at day 23 ([1]; bispecific 25 mg/kg, crizotinib, erlotinib 50 mg/kg, cetuximab 1 mg/mouse, listed as bispecific EGFR/c-Met molecule): 23 mm^3 and 23 ± 7 mm^3
Tumor volume ([1]; day 7 (start of treatment)): 137 ± 7 mm^3
Tumor volume ([1]; day 9): 142 ± 7 mm^3
Tumor volume ([1]; day 13): 83 ± 6 mm^3
Tumor volume ([1]; day 16): 44 ± 7 mm^3
Tumor volume ([1]; day 20): 30 ± 6 mm^3
Tumor volume ([1]; day 23): 23 ± 7 mm^3
Tumor volume ([1]; day 27): 21 ± 5 mm^3
Tumor volume ([1]; day 30): 23 ± 6 mm^3
antitumor activity (in words) [1, 8]: complete tumor regression (CR) in all mice; also recorded: complete response
toxicity, body weight loss, tolerability (in words) [2, 8]: Slight toxicity; also recorded: tolerated in 7 out of 10 mice

B3: ECB39: bispecific SEQ ID NO: 121: P53A1R5-17v2, (AP)5, P114AR7P94-A3, linked to albumin binding domain (protein)
chain: MLPAPKNLVVSEVTEDSARLSWADPHGFYDSFLIQYQESEKVGEAIVLTVPGSERSYDLTGLKPGTEYTVSIYGVHNVYKDTNMRGLPLSAIFTTAPAPAPAPAPLPAPKNLVVSRVTEDSARLSWTAPDAAFDSFWIRYFEFLGSGEAIVLTVPGSERSYDLTGLKPGTEYVVNIMGVKGGKISPPLSAIFTTAPAPAPAPAPLAEAKVLANRELDKYGVSDYYKNLINNAKTVEGVKALLDEILAALP
modifications: Bispecific EGFR/c-Met binding molecule
tumor growth (tumor growth inhibition, TGI) [3]: reduced tumor growth
tumor growth (tumor growth inhibition, TGI) ([3]; listed as P53A1R5-17v2-P114AR7P94-A3): showed the most efficacy

B4: ECB28: bispecific SEQ ID NO: 119: P53A1R5-17v2, (AP)5, P114AR5P74-A5, linked to albumin binding domain (protein)
chain: B1 chain with D23A, W26H, A27G, E30D
modifications: Bispecific EGFR/c-Met binding molecule
tumor growth (tumor growth inhibition, TGI) [3]: reduced tumor growth

B5: ECB15: bispecific SEQ ID NO: 57: P54AR4-83v2, (AP)5, P114AR7P94-A3 (protein)
chain: MLPAPKNLVVSEVTEDSARLSWDDPWAFYESFLIQYQESEKVGEAIVLTVPGSERSYDLTGLKPGTEYTVSIYGVHNVYKDTNMRGLPLSAIFTTAPAPAPAPAPLPAPKNLVVSRVTEDSARLSWTAPDAAFDSFWIRYFEFLGSGEAIVLTVPGSERSYDLTGLKPGTEYVVNIMGVKGGKISPPLSAIFTT
modifications: bispecific EGFR/cMet binding molecule
ka [4]: 351000 M⁻¹ s⁻¹
kd [4]: 0.000133 s⁻¹
IC50 [5]: 23 nM
growth of NCI-H1975 cell line ([6]; EGFR L858R, T790M): inhibited growth
tumor cell growth of cell lines shown in Table 20 ([6]; wild type, amplified or mutant EGFR, wild type or amplified c-Met): inhibited tumor cell growth

B6: P54AR4-37v2: EGFR-binding FN3 domain, SEQ ID NO: 29; stabilized P54AR4-37 (protein)
chain: LPAPKNLVVSEVTEDSLRLSWTWPYADLDSFLIQYQESEKVGEAINLTVPGSERSYDLTGLKPGTEYTVSIYGVHNVYKDTNMRGLPLSAEFTT
modifications: EGFR binding FN3 domain
Tm [7]: 64.2 °C

B7: P54AR4-83: EGFR-binding FN3 domain, SEQ ID NO: 25 (protein)
chain: B6 chain with T22D, W23D, Y25W, D27F, L28Y, D29E
modifications: EGFR binding FN3 domain
Tm [7]: 50.6 °C

B8: P54CR4-31: EGFR-binding FN3 domain, SEQ ID NO: 26 (protein)
chain: LPAPKNLVVSEVTEDSLRLSWTAPDAAFDSFLIQYQESEKVGEAINLTVPGSERSYDLTGLKPGTEYTVSIYGVLGSYVFEHDVMLPLSAEFTT
modifications: EGFR binding FN3 domain
Tm [7]: 60.9 °C

B9: P54CR4-31v2: EGFR-binding FN3 domain, SEQ ID NO: 28; stabilized P54CR4-31 (protein)
chain: B8 chain with L17A, N46V, E91I
modifications: EGFR binding FN3 domain
Tm [7]: 78.9 °C

B10: P54AR4-37: EGFR-binding FN3 domain, printed SEQ ID NO: 22 (possibly P54AR4-73) (protein)
chain: B6 chain
modifications: EGFR binding FN3 domain
Tm [7]: 45.9 °C

B11: ECB97: bispecific SEQ ID NO: 64: P54AR4-83v22, (AP)5, P114AR7P95-C5v2 (protein)
chain: B5 chain with M84I, M177L, G178S, K183S
modifications: bispecific EGFR/cMet binding molecule
IC50 [5]: 31 nM

B12: ECB106: bispecific SEQ ID NO: 65: P54AR4-83v23, (AP)5, P114AR7P94-A3v22 (protein)
chain: B5 chain with W26H, M84I, M177L
modifications: bispecific EGFR/cMet binding molecule
IC50 [5]: 484 nM

B13: ECB107: bispecific SEQ ID NO: 66: P54AR4-83v23, (AP)5, P114AR9P121-A6v2 (protein)
chain: B5 chain with W26H, M84I, L144V, M177L, K183S
modifications: bispecific EGFR/cMet binding molecule
IC50 [5]: 2640 nM

B14: ECB108: bispecific SEQ ID NO: 67: P54AR4-83v23, (AP)5, P114AR9P122-A7v2 (protein)
chain: B5 chain with W26H, M84I, L144V, G145S, S146K, E148D, M177L, K183S
modifications: bispecific EGFR/cMet binding molecule
IC50 [5]: 11400 nM

B15: ECB109: bispecific SEQ ID NO: 68: P54AR4-83v23, (AP)5, P114AR7P95-C5v2 (protein)
chain: B5 chain with W26H, M84I, M177L, G178S, K183S
modifications: bispecific EGFR/cMet binding molecule
IC50 [5]: 574 nM
